Where no end group is shown, it is not given here.
Columns and labels:
[1] = target: charged UFC1 (UFC1~UFM1): isopeptide‐linked UFC1 T106S/C116K ‐ Strep‐tagged UFM1 covalent complex (UniProt Q9Y3C8); test: ITC
[2] = target: T1, UFC1 (E2), wild type, uncharged (UniProt Q9Y3C8 1-167); test: ITC
T1 sequence: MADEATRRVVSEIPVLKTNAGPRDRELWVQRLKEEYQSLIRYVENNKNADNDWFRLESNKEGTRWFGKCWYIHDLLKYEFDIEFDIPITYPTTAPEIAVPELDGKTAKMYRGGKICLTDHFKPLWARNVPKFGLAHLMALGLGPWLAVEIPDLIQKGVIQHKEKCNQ

UFC1 K47E = target: T2, UFC1 K47E (UniProt Q9Y3C8 1-167, K47E); test: ITC
T2 sequence: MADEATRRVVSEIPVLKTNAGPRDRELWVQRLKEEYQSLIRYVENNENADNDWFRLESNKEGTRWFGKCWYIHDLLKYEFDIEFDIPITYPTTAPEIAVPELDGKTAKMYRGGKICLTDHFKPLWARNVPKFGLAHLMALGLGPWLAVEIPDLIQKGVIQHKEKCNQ

[3] = target: T1, UFC1 (E2), wild type, uncharged; test: NMR titration

## DDRGK1‐UFL1 fusion protein (DDRGK1 207–314 ‐ UFL1 1–200) (from UniProt Q96HY6;O94874)
[1]
  Kd: 2570 nM

## DDRGK1ext‐UFL1 extended fusion protein (DDRGK1 87–314 ‐ UFL1 1–200) (from UniProt Q96HY6 87-314; O94874 1-200)
[1]
  Kd: 230 nM

B1: DDRGK1‐UFL1 fusion protein (DDRGK1 207–314 ‐ UFL1 1–200) (other)
chain: MTEEQSQSFLTEFINYIKQSKVVLLEDLASQVGLRTQDTINRIQDLLAEGTITGVIDDRGKFIYITPEELAAVANFIRQRGRVSIAELAQASNSLIAWGRESPAQAPAMADAWEEIRRLAADFQRAQFAEATQRLSERNCIEIVNKLIAQKQLEVVHTLDGKEYITPAQISKEMRDELHVRGGRVNIVDLQQVINVDLIHIENRIGDIIKSEKHVQLVLGQLIDENYLDRLAEEVNDKLQESGQVTISELCKTYDLPGNFLTQALTQRLGRIISGHIDLDNRGVIFTEAFVARHKARIRGLFSAITRP
[2]
  Kd: 2300 nM
UFC1 K47E
  Kd: 33800 nM

B2: UBA5 C‐terminus (UBA5 347–404) (domain or fragment)
chain: SEVSEEELKNFSGPVPDLPEGITVAYTIPKKQEDSVTELTVEDSGESLEDLMAKMKNM
modifications: also: uniformly 15N-labelled
[3]
  binding result: binds

Reference: publication PMC10702826 (EMBO Reports, 2023)
